Reference: publication PMC3098174
Like-named read-outs stand apart in the source and are kept apart here.

Legend:
[1] = molecular target: Stingray Pancreatic Lipase (Dasyatis pastinaca) (common stingray Dasyatis pastinaca)
[2] = molecular target: Stingray Pancreatic Lipase (Dasyatis pastinaca) (common stingray Dasyatis pastinaca); assay: lipase activity titration with colipase, Scatchard plot; apparent Kd from the slope of Scatchard plots; lipase (2.1 nM) with increasing amounts of colipase, emulsified olive oil as substrate, 6 mM NaTDC, pH 8.5, 37°C, pH-stat
[3] = molecular target: Stingray Pancreatic Lipase (Dasyatis pastinaca) (common stingray Dasyatis pastinaca); remark: listed apart in the source
[4] = molecular target: chicken pancreatic lipase (chicken)
[5] = molecular target: dromedary pancreatic lipase (dromedary)
[6] = molecular target: turkey pancreatic lipase (turkey)
[7] = molecular target: Stingray Pancreatic Lipase (Dasyatis pastinaca) (common stingray Dasyatis pastinaca); assay: lipase activity titration with colipase, Scatchard plot; apparent Kd from the slope of Scatchard plots; lipase (2.1 nM) with increasing amounts of colipase, emulsified olive oil as substrate, 6 mM NaTDC, pH 8.5, 37°C, pH-stat; remark: listed apart in the source
[8] = molecular target: chicken pancreatic lipase (chicken); assay: as above
[9] = molecular target: dromedary pancreatic lipase (dromedary); assay: as above
[10] = molecular target: turkey pancreatic lipase (turkey); assay: as above

Sequence of Stingray Pancreatic Lipase (Dasyatis pastinaca) (common stingray Dasyatis pastinaca) (A0A059TA26 entry or part of it): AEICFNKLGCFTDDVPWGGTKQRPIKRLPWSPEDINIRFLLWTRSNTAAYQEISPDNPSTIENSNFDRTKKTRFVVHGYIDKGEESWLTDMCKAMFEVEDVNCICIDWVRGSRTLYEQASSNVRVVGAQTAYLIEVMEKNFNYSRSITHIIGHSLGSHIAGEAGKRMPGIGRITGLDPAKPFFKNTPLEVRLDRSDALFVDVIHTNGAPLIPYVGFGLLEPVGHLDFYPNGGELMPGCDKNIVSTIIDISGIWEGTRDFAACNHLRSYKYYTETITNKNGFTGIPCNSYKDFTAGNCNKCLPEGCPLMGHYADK

| Substance | kcat/Kd of SPL activated by colipase (olive oil emulsion, 6 mM NaTDC) (S^-1 M^-1 10^-9) [1] | Kd [2] [nM] | kcat/Kd of lipase activated by stingray colipase (olive oil emulsion, 6 mM NaTDC) (S^-1 M^-1 10^-9) [3] | kcat/Kd of lipase activated by stingray colipase (olive oil emulsion, 6 mM NaTDC) (S^-1 M^-1 10^-9) [4] | kcat/Kd of lipase activated by stingray colipase (olive oil emulsion, 6 mM NaTDC) (S^-1 M^-1 10^-9) [5] | kcat/Kd of lipase activated by stingray colipase (olive oil emulsion, 6 mM NaTDC) (S^-1 M^-1 10^-9) [6] | Kd [7] [nM] | Kd [8] [nM] | Kd [9] [nM] | Kd [10] [nM] |
| --- | --- | --- | --- | --- | --- | --- | --- | --- | --- | --- |
| chicken pancreatic colipase (natural protein) | 576 | 3.9 | – | – | – | – | – | – | – | – |
| turkey pancreatic colipase (natural protein) | 599 | 3.6 | – | – | – | – | – | – | – | – |
| dromedary pancreatic colipase (natural protein) | 1140 | 2.2 | – | – | – | – | – | – | – | – |
| stingray pancreatic colipase (Dasyatis pastinaca) (natural protein) | 2070 | 1.2 | 2070 | 611 | 930 | 946 | 1.15 | 4.5 | 3 | 2.9 |
